Measured values taken from the supplement of paper PMC12764529.
± gives the half width of the 95% confidence interval.

assay: folding stability dG unfold from chymotrypsin proteolysis; higher = more stable
Experimental: (§1)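 Folding stability of de novo designed mini-proteins (<80 aa, no Cys; designed by TrROS, TrMRF, ProteinMPNN and the joint model) was measured by cDNA display proteolysis with trypsin and chymotrypsin. Each protease was used at 11 concentrations in a threefold dilution series plus a no-protease condition. K50 was inferred by Bayesian fitting of sequencing counts, and dG unfold was derived against a sequence-predicted unfolded-state K50 (Tsuboyama et al. method). Sequences shown include variable-length N-terminal GS-type padding (SAGGSAGG...) inside a display construct carrying a PA tag. Rows were kept only if the AF2 dimer inter-PAE was >15, to exclude likely homo-oligomers.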

Sequence | folding stability dG unfold
AARSVDVEVEELSTVTPAGGRTRLLRVRAYVPETGRTAEVPYRAVLLPDGSERPFGTAEELADRIARLLVSS [r1_77_TrMRF] | 0.182 ± 0.17 kcal/mol
PPVGPDAPVTPTTTPTPSGKTVTTTDRPLRREVTTTDPSTGTYTVTLTETDAAGRVLATRTETLSPEEVAAS [r1_380_JUSTAS] | -0.0788 ± 0.36 kcal/mol
QIPPGAKVEFGNKEIEVPPGKELMIFNGHIMTQDDMEDMMKNMPDGMEMYRYKVEDNKGKIDKVRRMRMKPS [r1_304_TrROS] | -0.102 ± 0.57 kcal/mol
SAAKPVVIEVGFDGKPVTVVVYPNPGRVRAYVPATNAVSEATVGEDGEVNLLLYNPADGKPLPANITVPSAG [r14_656_TrMRF] | -0.973 ± 0.39 kcal/mol
SADKEAVRKIAEKFMQEPGFEPRGISPDGHIMFRPPGQGRMYRIDIDVEKDNDGLDVKIPDIEPVPMPDSAG [r14_20_TrROS] | -0.0277 ± 0.31 kcal/mol
SAGDIEIEVEELGEGYKKITIRIKVDSIEEAIKEVEEIVRDFFSEEAEIVEIKIDPEKGIVEAVVIVPESAG [r5_810_TrMRF] | 3.39 ± 0.4 kcal/mol
SAGDYDVEKDPDGYRVEHKNGDKRYVPPVPPPIPVVMIPIKDPEDLDEFANELGLNITDISDDWITMPASAG [r5_328_TrROS] | 0.422 ± 0.13 kcal/mol
SAGGAKVTEVKVENGYVTVTVDGKLVAKAPPPPPPPKVRVRNADGEEEERSLEDLLAENPENLEIELESAGG [r13_802_TrROS_Hall] | 0.359 ± 0.1 kcal/mol
SAGGAPDIPILTASYSPDGVLYSSTTTPINGTLHYFPEDNPVVLATDPATGLTVPVGTLEDVKRLIASAGGS [r8_232_TrMRF] | 0.208 ± 0.14 kcal/mol
SAGGAPIPTVSTRTTPLPGGSSRTTTTTTYTFPETGTVYTATTTTTASPGGSPTTTATTTTTALAAASAGGS [r16_113_JUSTAS] | 0.0663 ± 0.26 kcal/mol
SAGGAPLAERTEPLPDGRTVRRVLEYDPEKRTVRVRTERWAPDGAAEPAEEVLDVPESATSPEFLLASAGGS [r8_461_JUSTAS] | -0.606 ± 0.21 kcal/mol
SAGGSAGGSAGGKTITLDELRENFPPGYQIRDNNGKQHRINANEPIEEGDPIEIVSKDDISAGGSAGGSAGG [r7_507_TrROS] | -0.206 ± 0.17 kcal/mol
SAGGSAGGSAGGPVIPKDVKVKVIFSNGEVAELEVDSVDDLQKKLNVPIPPNVNLVVSRGSAGGSAGGSAGG [r7_223_TrMRF] | -0.759 ± 0.37 kcal/mol
SAGGSAGGSAGGSMVITIEYTGSVEDLIKKLKEEGLDVKVLEVKFDPKTGKYTVTLEVKSAGGSAGGSAGGS [r4_315_JUSTAS] | 4.22 ± 0.2 kcal/mol
SLEELAKAIAEKLGLPVEDVEVRVEKEVDEETGEERLRVTVLIKVDGKTYLIEIDLETGEIVEIKPLEDLSA [r9_1219_TrROS_Hall] | 4.68 ± 0.23 kcal/mol

assay: folding stability dG unfold (combined trypsin and chymotrypsin); higher = more stable
Experimental: as §1

Sequence | folding stability dG unfold
AARSVDVEVEELSTVTPAGGRTRLLRVRAYVPETGRTAEVPYRAVLLPDGSERPFGTAEELADRIARLLVSS [r1_77_TrMRF] | -0.0373 ± 0.12 kcal/mol
PPVGPDAPVTPTTTPTPSGKTVTTTDRPLRREVTTTDPSTGTYTVTLTETDAAGRVLATRTETLSPEEVAAS [r1_380_JUSTAS] | -0.541 ± 0.31 kcal/mol
QIPPGAKVEFGNKEIEVPPGKELMIFNGHIMTQDDMEDMMKNMPDGMEMYRYKVEDNKGKIDKVRRMRMKPS [r1_304_TrROS] | < -1 kcal/mol
SAAKPVVIEVGFDGKPVTVVVYPNPGRVRAYVPATNAVSEATVGEDGEVNLLLYNPADGKPLPANITVPSAG [r14_656_TrMRF] | < -1 kcal/mol
SADKEAVRKIAEKFMQEPGFEPRGISPDGHIMFRPPGQGRMYRIDIDVEKDNDGLDVKIPDIEPVPMPDSAG [r14_20_TrROS] | < -1 kcal/mol
SAGDYDVEKDPDGYRVEHKNGDKRYVPPVPPPIPVVMIPIKDPEDLDEFANELGLNITDISDDWITMPASAG [r5_328_TrROS] | -0.158 ± 0.27 kcal/mol
SAGGAKVTEVKVENGYVTVTVDGKLVAKAPPPPPPPKVRVRNADGEEEERSLEDLLAENPENLEIELESAGG [r13_802_TrROS_Hall] | -0.0384 ± 0.28 kcal/mol
SAGGAPDIPILTASYSPDGVLYSSTTTPINGTLHYFPEDNPVVLATDPATGLTVPVGTLEDVKRLIASAGGS [r8_232_TrMRF] | -0.37 ± 0.19 kcal/mol
SAGGAPIPTVSTRTTPLPGGSSRTTTTTTYTFPETGTVYTATTTTTASPGGSPTTTATTTTTALAAASAGGS [r16_113_JUSTAS] | -0.507 ± 0.23 kcal/mol
SAGGAPLAERTEPLPDGRTVRRVLEYDPEKRTVRVRTERWAPDGAAEPAEEVLDVPESATSPEFLLASAGGS [r8_461_JUSTAS] | < -1 kcal/mol
SAGMPPVRVVQAPSTVYTDPSPPTLTVESVFTGEGRLSTTSSTVPAPPELADLPAGAAVSRSFTVTVLPSAG [r5_714_JUSTAS] | < -1 kcal/mol
SAGMPRLVTVEMVVLRVVPVYDPEGKPVREEPREERRTRTAPLAEAQAEIDALPPDEEVTEILRVEPESAGG [r19_114_JUSTAS] | < -1 kcal/mol
SAGMTPEELEAGRPVERTIPLEIQHPEGNPIATYNITGTLTMEELKKLKEEIREEAKKKGIPPNLNTSLSAG [r5_606_JUSTAS] | < -1 kcal/mol
SAGMVKIKIYVENPETGEEKELEIVKEFESEEEAEKEAEKIAKELEKAGYKVKKIEIEVIPLPPLPENPSAG [r5_660_TrMRF] | > 6 kcal/mol
SAGPKIEIEPLDWERDPGNGHMVIPVEISVKVPREENGRPPEQAEEKKESLVREFAREWAPKHGMPIHVSAG [r5_333_TrROS] | < -1 kcal/mol
